Test results published in patent US20200362021A1 (PHANES THERAPEUTICS, published 2020).
Positions count from the first letter of the chain named.

T1: pyro-apelin 13 (N-terminal pyroglutamate)
T1 peptide: ERPRLSHKGPMPF

T2: alanine scanning peptide 10A (KGAMPF)
T2 peptide: KGAMPF

T3: apelin peptide 2-13 (RPRLSHKGPMPF)
T3 peptide: RPRLSHKGPMPF

T4: apelin peptide 1-12 (QRPRLSHKGPMP)
T4 peptide: QRPRLSHKGPMP

T5: 9-13
T5 construct: also called apelin peptide 9-13 (GPMPF)
T5 peptide: GPMPF

T6: apelin peptide 7-13 (HKGPMPF)
T6 peptide: HKGPMPF

T7: apelin peptide 8-13 (KGPMPF)
T7 peptide: KGPMPF

T8: apelin peptide 3-13 (PRLSHKGPMPF)
T8 peptide: PRLSHKGPMPF

T9: apelin peptide 4-13 (RLSHKGPMPF)
T9 peptide: RLSHKGPMPF

T10: apelin peptide 5-13 (LSHKGPMPF)
T10 peptide: LSHKGPMPF

T11: 10-13
T11 construct: also called apelin peptide 10-13 (PMPF)
T11 peptide: PMPF

T12: apelin peptide 6-13 (SHKGPMPF)
T12 peptide: SHKGPMPF

T13: alanine scanning peptide 13A (KGPMPA)
T13 peptide: KGPMPA

B1: humanized anti-apelin mAb A31 (human IgG1 backbone) (antibody, V domains shown)
VH: QSLEESGGGLVQPGGSLRLSCAVSGIDLYSNRMSWVRQAPGKGLEWVGSIGSSPWYASWAQGRFTISRDNSNTVYLQMNSLTAEDTATYFCAKGGYRPGASVWGQGTLVTVSS
VL: DIQLTQSPSSLSASVGDRVTITCQSSQSIYDNNDLAWYQQKPGKTPKRLIYLASSLDSGVPSRFSGSGSGTDFTLTISSLQPEDVATYYCAGGYSGDIYTFGGGTKVEIK
notes: humanized from C8; tested as HEK293 supernatant
B2: humanized anti-apelin mAb A31 (human IgG4 backbone) (antibody, V domains shown)
VH: B1 VH
VL: B1 VL
B3: humanized anti-apelin mAb B24 (human IgG4 backbone) (antibody, V domains shown)
VH: B1 VH with A22T, S30T, M33V, Q77K, L81P, A100G, V102I
VL: B1 VL with A36G
B4: humanized anti-apelin mAb B25 (human IgG4 backbone) (antibody, V domains shown)
VH: B1 VH with A22T, S30T, Y56F, Q61L, Q77K, L81P
VL: B1 VL with S95N
B5: anti-apelin mAb C8 (antibody, V domains shown)
VH: QSVEESGGRLVTPGTPLTLTCTVSGIDLYSNRMSWVRQAPGKGLEWIGSIGSSPWYASWAQGRFTISKTSSTTVNLKITSPTTEDTATYFCAKGGYRPGASVWGPGTLVTVSS
VL: QVLTQTESPVSAPVGGTVTIACQSSQSVYDNNDLAWYQQKAGQTPKRLIYLASSLDSGVPSRFKGSGSGTEFTLTISDLECDDAATYYCAGGYSGDIYTFGGGTEVVVE
notes: recombinant rabbit IgG made in HEK293 cells
B6: anti-apelin mAb C25 (antibody, V domains shown)
VH: QSLEESGGGLVTPGTPLTLTCTVSGIDLYTNRMSWVRQAPGKGLEWIGSIGSSPWFASWALGRFTISKTSTTVNLKITSPTTEDTATYFCAKGGYRPGASVWGPGTLVTVSS
VL: B5 VL with Y50F, S94N, E109K
notes: as for B5
B7: anti-apelin mAb C24 (antibody, V domains shown)
VH: B6 VH with G9R, M33V, E45D, F56Y, L61Q, P80S, A99G, V101I
VL: B5 VL with T6S, E7A, P13A, G16D, T17S, A35G, A41P, K64S, E71Q, E109K
notes: as for B5

Experiments:
[1] = target: apelin 13 (competition peptide 1-13, …); assay: cell-based or functional assay
pyro-apelin 13 = target: T1, pyro-apelin 13; assay: cell-based or functional assay
[2] = target: T14, biotin-apelin-13 (biotin-…) (N-terminal biotin); assay: SPR (Biacore) with biotin-apelin-13, humanized IgG1 mAb in HEK293 supernatant
T14 construct: also called Biotin-APL13
Excerpt: The rabbit anti-apelin mAb C8 was humanized to reduce the potential of immunogenicity when used in human patients. The sequences of the variable regions of the heavy and light chains (VH and VL) were compared with the human antibody sequences in the Protein Data Bank (PDB) database and a homology model was built by applying SWISS-modeling. The CDRs in both the heavy and light chains of the rabbit mAb were grafted into human frameworks that have the highest possibility of maintaining the proper structure likely required for antigen binding. Backmutations from human residue to rabbit residue were designed when necessary. The sequences of the humanized VH and VL regions are shown in Table 11 and Table 12, respectively. The humanized VH and VL regions were fused to human IgG1 heavy chain and kappa light chain constant regions, respectively, to generate humanized mAbs. Constructs corresponding to the mAb sequences were used for transient transfection in HEK 293 cells and the supernatants were analyzed for the affinity of each humanized mAb for apelin.

[3] = target: T14, biotin-apelin-13 (biotin-…); assay: ELISA, increasing concentrations of IgG4 mAb immobilized on plate, biotin-apelin-13 added, streptavidin-AP detection
Excerpt: Two additional humanized mAbs (B24 and B25) were generated with sequence modifications on A31. […] The binding was then detected by adding PNPP substrate and reading absorbance of the ELISA plates at 405 nm.

[4] = target: alanine scanning peptide 8A (AGPMPF); assay: competition ELISA, captured mAb, peptide competes with biotin-apelin-13, A405
Experimental: (§1) Goat anti-rabbit IgG was immobilized on an ELISA plate. […] Several competition peptides were used as controls.
(§2) For the peptide competition assay, goat anti-rabbit IgG in carbonate coating buffer was coated on high binding ELISA plates at 1 μg/ml overnight. […] After incubation at room temperature for 60 minutes, the plates were washed and then streptavidin-conjugated to alkaline phosphatase was added, and the binding was detected by adding PNPP substrate and reading absorbance of ELISA plates at 405 nm. Each competition peptide or control sample was assayed in duplicate for a given mAb. […] “No comp:” no competition peptide was added; “No Ab, No Comp:” neither competition peptide nor anti-apelin mAb was added.

[5] = target: T2, alanine scanning peptide 10A (KGAMPF); assay: as above
Experimental: as §1, §2

[6] = target: T3, apelin peptide 2-13 (RPRLSHKGPMPF); assay: as above
Experimental: as §1, §2

[7] = target: alanine scanning peptide 9A (KAPMPF); assay: as above
Experimental: as §1, §2

[8] = target: T14, biotin-apelin-13 (biotin-…); assay: SPR (Biacore), biotin-apelin-13 on streptavidin CM5 chip, mAb at 12.5-100 nM
Experimental: Anti-apelin mAbs at four different concentrations (12.5 nM, 25 nM, 50 nM and 100 nM) were captured on the chip surface. The on- and off-rate for antibody-antigen binding were measured, curve fitted and calculated.

[9] = target: T4, apelin peptide 1-12 (QRPRLSHKGPMP); assay: competition ELISA, captured mAb, peptide competes with biotin-apelin-13, A405
Experimental: (§3) Goat-anti-rabbit IgG was immobilized on an ELISA plate.
(§4) The antibody binding sites for anti-apelin mAbs C8, C24, and C25 were mapped using an ELISA-based peptide competition assay. […] Each of the competition peptides (Table 7) was assessed for its ability to inhibit biotin-apelin-13 binding to the mAb. An inhibition signal reflects the ability of the competition peptide to bind to the mAb in solution.
as §2

9-13 = target: T5, 9-13; assay: as above
Experimental: as §3, §4, §2

[10] = target: T6, apelin peptide 7-13 (HKGPMPF); assay: as above
Experimental: as §3, §4, §2

[11] = target: T7, apelin peptide 8-13 (KGPMPF); assay: as above
Experimental: as §3, §4, §2

[12] = target: T8, apelin peptide 3-13 (PRLSHKGPMPF); assay: as above
Experimental: as §3, §4, §2

[13] = target: T9, apelin peptide 4-13 (RLSHKGPMPF); assay: as above
Experimental: as §3, §4, §2

[14] = target: T10, apelin peptide 5-13 (LSHKGPMPF); assay: as above
Experimental: as §3, §4, §2

10-13 = target: T11, 10-13; assay: as above
Experimental: as §3, §4, §2

[15] = target: T12, apelin peptide 6-13 (SHKGPMPF); assay: as above
Experimental: as §3, §4, §2

[16] = target: T13, alanine scanning peptide 13A (KGPMPA); assay: as above
Experimental: as §1, §2

Row | Binder | IC50 [1] [nM] | IC50 (pyro-apelin 13) [nM] | Kd [2] [nM] | EC50 [3] [nM] | binding result [4] | binding result [5] | binding result [6] | binding result [7] | Kd [8] [nM] | binding result [9] | binding result (9-13) | binding result [10] | binding result [11] | binding result [12] | binding result [13] | binding result [14] | binding result (10-13) | binding result [15] | binding result [16]
1 | B1 | 25 | 19.9 | 0.000148 |  |  |  |  |  |  |  |  |  |  |  |  |  |  |  | 
2 | B2 |  |  |  | 0.21 |  |  |  |  |  |  |  |  |  |  |  |  |  |  | 
3 | B3 |  |  |  | 0.79 |  |  |  |  |  |  |  |  |  |  |  |  |  |  | 
4 | B4 |  |  |  | 0.47 |  |  |  |  |  |  |  |  |  |  |  |  |  |  | 
5 | B5 |  |  |  |  | binds | binds | binds | binds | 0.0174 | no binding (tested: peptide concentration not stated) | binds | binds | binds | binds | binds | binds | binds | binds | 
6 | B6 |  |  |  |  | binds | binds | binds | binds | 0.0508 | no binding (tested: peptide concentration not stated) | binds | binds | binds | binds | binds | binds | binds | binds | no binding (tested: peptide concentration not stated)
7 | B7 |  |  |  |  | binds | binds | binds | binds | 0.000401 | no binding (tested: peptide concentration not stated) | binds | binds | binds | binds | binds | binds | binds | binds | no binding (tested: peptide concentration not stated)
